Test results from patent publication US20240376151A1, “STAPLED PEPTIDES AND METHODS THEREOF” (FOG PHARMACEUTICALS, INC., priority 2022, published 2024).

Target: T1, RNF31 PUB domain (Homo sapiens, UniProt Q96EP0)
T1 construct: MBP-TEV (N, cleaved yes); made in house; host or cells: E. coli BL21 (DE3) pLysS
T1 sequence (Q96EP0 1-179): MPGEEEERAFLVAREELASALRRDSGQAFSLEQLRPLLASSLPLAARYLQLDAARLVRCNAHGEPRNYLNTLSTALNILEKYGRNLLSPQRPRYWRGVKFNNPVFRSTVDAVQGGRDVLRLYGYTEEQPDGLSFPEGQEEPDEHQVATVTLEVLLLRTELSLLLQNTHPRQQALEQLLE
Assay: Phage Library Screening with NGS, RNF31 PUB domain
Assay type: binding
Details: for Phage library screen NGS readout, Target Concentration 10 / Phage library screen NGS readout, Target Concentration 30 / Phage library screen NGS readout, Target Concentration 100 / Phage library screen NGS readout, Target Concentration 300 / Phage library screen NGS readout, Target Concentration 1000: RNF31 PUB domain clusters C41-C45; for Phage library screen NGS readout, BLANK: clusters C41-C45

[1] = target concentration 1000, first column
[2] = target concentration 1000, second column

Phage library screen NGS readout, Target Concentration 10	Phage library screen NGS readout, Target Concentration 30	Phage library screen NGS readout, Target Concentration 100	Phage library screen NGS readout, Target Concentration 300	Phage library screen NGS readout, Target Concentration 1000 [1]	Phage library screen NGS readout, Target Concentration 1000 [2]	Phage library screen NGS readout, BLANK (column 1 of 5)	Phage library screen NGS readout, BLANK (column 2 of 5)	Phage library screen NGS readout, BLANK (column 3 of 5)	Phage library screen NGS readout, BLANK (column 4 of 5)	Phage library screen NGS readout, BLANK (column 5 of 5)	Sequence
0	0	0	3	13	6	0	0	1	0	0	DPAWWNCLYAADECWSW
0	0	0	6	27	15	0	0	0	0	4	DPAIDACYDAAVMCTYV
2	0	2	7	36	20.49	0	0	0	0	1	DPAQEECFEAAVFCSYY
0	0	0	3	5	5	0	0	0	0	0	DPAQMECIDAAIMCSYT
0	0	0	2	8	4	0	0	0	0	0	DPAIQECLLAAATCWTY
0	0	0	4	26	17	0	0	0	0	0	DPAADQCDIAAFVCSTY
0	0	1	4	13	6	1	2	2	1	0	DPAYWQCIYAAWDCDQM
0	0	0	2	5	6	0	0	0	0	0	DPAFAQCEVAAMVCTTY
0	0	1	2	6	4	1	0	0	0	2	DPAFWECMYAASDCDAS
0	0	0	4	10	13	0	0	0	0	0	DPASHMCLEAAVMCTYD
0	0	1	2	15	8	0	0	0	0	0	DPAHDWCLYAAYDCRVY
